Results on 9 molecules are retold here after patent US20220002427A1 (ENGMAB SARL, published 2022).

The labels stand for the following.
T1: recombinant human BCMA Fc(kih) (human, UniProt Q02223 4-53, site-specifically biotinylated at the C-terminal avi-tag ; Biotin on the avi-tag at the C-terminus of the Fc knob chain (tag and Fc left out).)
T1 construct: Knobs-into-holes heterodimer carrying one BCMA ectodomain; also called huBCMA Fc(kih); huBCMA; not shown: human IgG1 hinge-Fc knob chain with C-terminal avi-tag, and the unfused Fc hole chain
T1 chain: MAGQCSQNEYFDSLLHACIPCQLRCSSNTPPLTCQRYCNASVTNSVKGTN

T2: human BCMA on cells (human, UniProt Q02223 1-184)
T2 construct: whole, on cells; also called huBCMA on HEK cells; HEK-huBCMA cells
T2 sequence (looked up): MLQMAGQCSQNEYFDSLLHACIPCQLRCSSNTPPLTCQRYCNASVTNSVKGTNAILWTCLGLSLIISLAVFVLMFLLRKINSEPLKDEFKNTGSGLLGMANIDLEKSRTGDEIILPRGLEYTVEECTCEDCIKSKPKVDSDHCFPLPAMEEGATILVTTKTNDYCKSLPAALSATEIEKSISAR

B1: Mab 21 IgG (antibody, V domains shown)
VH: EVQLLESGGGLVQPGGSLRLSCAASGFTFSDNAMGWVRQAPGKGLEWVSAISGPGSSTYYADSVKGRFTISRDNSKNTLYLQMNSLRAEDTAVYYCAKVLGWFDYWGQGTLVTVSS
VL: EIVLTQSPGTLSLSPGERATLSCRASQSVSEYYLAWYQQKPGQAPRLLIEHASTRATGIPDRFSGSGSGTDFTLTISRLEPEDFAVYYCQQYGYPPDFTFGQGTKVEIK
notes: also called antibody 21
B2: Mab 22 IgG (antibody, V domains shown)
VH: B1 VH
VL: B1 VL with E31S, E50S, H51G, S53G, T54S
notes: also called antibody 22; clone 22
B3: Mab 33 IgG (antibody, V domains shown)
VH: B1 VH with S30Y, D31T, S52N, G53R, P54F, S56G
VL: B1 VL
B4: Mab 42 IgG (antibody, V domains shown)
VH: B1 VH
VL: B1 VL with E31D, Y32E, A35S, E50H, H51S, T75A
notes: also called antibody 42; clone 42
B5: Mab 39 IgG (antibody, V domains shown)
VH: B1 VH with S30T, D31Q, G53P, P54T, S56F
VL: B1 VL
B6: Mab 14 (antibody, V domains shown)
VH: B1 VH with S30Y, D31T, S52N, G53R, P54F, S56G
VL: B1 VL with E31D, Y32E, A35S, E50H, H51S, T75A
notes: IgG variant (VH/VL combination)
B7: Mab 28 (antibody, V domains shown)
VH: EVQLLESGGGLVQPGGSLRLSCAASGFTFSSAPMGWVRQAPGKGLEWVSAISYIGHTYYADSVKGRFTISRDNSKNTLYLQMNSLRAEDTAVYYCAKVLGWFDYWGQGTLVTVSS
VL: B1 VL with E31S, E50S, H51G, S53G, T54S
notes: IgG variant
B8: Mab 44 (antibody, V domains shown)
VH: B7 VH
VL: B1 VL with E31D, Y32E, A35S, E50H, H51S, T75A
notes: IgG variant
B9: Mab 34 (antibody, V domains shown)
VH: B1 VH with S30Y, D31T, S52N, G53R, P54F, S56G
VL: B1 VL with E31S, E50S, H51G, S53G, T54S
notes: IgG variant

Where a chain is given by its changes, count along the chain named. Values joined by “and” are separate entries in the source; they are usually repeats but may differ in a detail not shown here. Identical values can stand only once.

T4 sequence (A0A2K5UD97 entry or part of it): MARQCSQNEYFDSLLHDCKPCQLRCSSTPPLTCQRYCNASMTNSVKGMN

One experiment deals with T3, murine BCMA extracellular domain, monomeric Fc-fusion (murine, UniProt O88472 1-49, site-specifically biotinylated at the C-terminal avi-tag).
T3 construct: extracellular domain; also called muBCMA; mouse BCMA; not shown: hinge and Fc of human IgG1, knob chain; avi-tag; unfused human IgG1 Fc portion (hole chain)
T3 sequence (O88472 whole entry, the tested form may be a part): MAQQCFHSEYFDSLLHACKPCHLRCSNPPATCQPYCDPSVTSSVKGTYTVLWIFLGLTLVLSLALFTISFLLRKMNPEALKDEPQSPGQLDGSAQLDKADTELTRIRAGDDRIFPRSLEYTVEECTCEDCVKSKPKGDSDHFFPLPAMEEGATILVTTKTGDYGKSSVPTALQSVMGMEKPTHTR
Description: SPR one-shot kinetics (ProteOn XPR36), IgG captured from HEK293 supernatant via anti-human F(ab)2, BCMA as analyte. The procedure:
(§1) All experiments were performed at 25° C. using PBST as running buffer (10 mM PBS, pH 7.4 and 0.005% (v/v) Tween®20). A ProteOn XPR36 biosensor equipped with GLC and GLM sensor chips and coupling reagents (10 mM sodium acetate, pH 4.5, sulfo-N-hydroxysuccinimide, 1-ethyl-3-(3-dimethylaminopropyl)-carbodiimide hydrochloride [EDC] and ethanolamine) was purchased from BioRad Inc. (Hercules, Calif.). Immobilizations were performed at 30 μl/min. on a GLM chip. pAb (goat) anti hu IgG, F(ab)2 specific Ab (Jackson) was coupled in vertical direction using a standard amine-coupling procedure: all six ligand channels were activated for 5 min with a mixture of EDC (200 mM) and sulfo-NHS (50 mM). Immediately after the surfaces were activated, pAb (goat) anti hu IgG, F(ab)2 specific antibody (50 μg/ml, 10 mM sodium acetate, pH 5) was injected across all six channels for 5 min. Finally, channels were blocked with a 5 min injection of 1 M ethanolamine-HCl (pH 8.5). […] One-shot kinetic measurements were performed by injection of a dilution series of human, cyno and mouse BCMA (50, 10, 2, 0.4, 0.08, 0 nM, 50 μl/min) for 3 min along the vertical channels. Dissociation was monitored for 5 min Kinetic data were analyzed in ProteOn Manager v. 2.1. Processing of the reaction spot data involved applying an interspot-reference and a double-reference step using an inline buffer blank (Myszka, 1999). The processed data from replicate one-shot injections were fit to a simple 1:1 Langmuir binding model without mass transport (O'Shannessy et al., 1993).
Usually Kd stands for the free concentration of one partner at which half of the binding sites on the other are occupied at equilibrium, for simple one-to-one binding. B1 had a Kd of 0.73 nM.

For the molecule B2, the equilibrium dissociation constant (Kd) turned out to be 0.9 nM.

The molecule B3 registered a dissociation constant Kd of 0.49 nM.

On to B4, for which the dissociation constant Kd came to 2.5 nM.

For a further experiment, the target named is T1, recombinant human BCMA Fc(kih). The description is as above. The procedure:
as §1
B1: the Kd amounted to 0.028 nM.

Regarding B2, the Kd is 0.048 nM.

Take B3: the equilibrium dissociation constant (Kd) was 0.017 nM.

Turning to B5, the dissociation constant (Kd) worked out at 0.062 nM.

Regarding B4, the Kd amounted to 0.23 nM.

Another experiment addresses T4, recombinant cynomolgus BCMA Fc(kih) (cynomolgus, UniProt A0A2K5UD97 4-51). The experiment is described as above. The procedure: as §1
Regarding B1, the Kd came out at 0.051 nM.

As to B3, the Kd was 0.034 nM.

As to B5, the Kd turned out to be 0.27 nM.

For B4, the Kd came to 0.39 nM.

Another experiment concerns the target T1, recombinant human BCMA Fc(kih). Briefly: SPR (Biacore T200), IgG captured via anti-human Fab, BCMA Fc(kih) as analyte, 1:1 Langmuir fit. The procedure:
(§2) Assessment of binding of anti-BCMA antibodies to recombinant BCMA by surface plasmon resonance (SPR) as follow. […] The avidity of the interaction between anti-BCMA antibodies and recombinant BCMA Fc(kih) (human and cynomolgus) was determined. Biotinylated recombinant human and cynomolgus BCMA Fc(kih) were directly coupled on a SA chip following instructions (Biacore, Freiburg/Germany). The immobilization level ranged from 200 to 700 RU. […] The dissociation was monitored for 180 seconds. Bulk refractive index differences were corrected for by subtracting the response obtained on the reference flow cell. Here, the anti-BCMA antibodies were flown over an empty surface previously activated and deactivated as described in the standard amine coupling kit. Apparent kinetic constants were derived using the Biacore T200 Evaluation Software (vAA, Biacore AB, Uppsala/Sweden), to fit rate equations for 1:1 Langmuir binding by numerical integration, despite the bivalency of the interaction for comparison purposes. The affinity of the interaction between anti-BCMA antibodies and recombinant human BCMA Fc(kih) was also determined. Anti-human Fab antibody (GE Healthcare) was directly coupled on a CMS chip at pH 5.0 using the standard amine coupling kit (Biacore, Freiburg/Germany). The immobilization level was about 6500 RU. […] The dissociation was monitored for 120 seconds. Bulk refractive index differences were corrected for by subtracting the response obtained on reference flow cell. […] Kinetic constants were derived using the Biacore T100 Evaluation Software (vAA, Biacore AB, Uppsala/Sweden), to fit rate equations for 1:1 Langmuir binding by numerical integration (Table 4).
On the technique in general: Surface plasmon resonance follows binding to a sensor surface in real time, without labels.
One may read the koff as the first-order rate constant of dissociation. As usually defined, the kon is a measure of how fast the partners come together. Turning to B1, the Kd stood at 0.0516 nM, the koff was found to be 4.39e-05 s⁻¹ and the kon was 851000 M⁻¹ s⁻¹.

B2: the Kd is 0.0633 nM, the off-rate constant (koff) was 5.15e-05 s⁻¹ and the kon was found to be 814000 M⁻¹ s⁻¹.

For B3, the Kd worked out at 0.178 nM, the koff amounted to 3.55e-05 s⁻¹ and the kon is 200000 M⁻¹ s⁻¹.

Turning to B5, the Kd came to 0.155 nM, the koff was determined as 5.58e-05 s⁻¹ and the kon was 361000 M⁻¹ s⁻¹.

Regarding B4, the Kd is 0.371 nM, the koff amounted to 0.000298 s⁻¹ and the kon amounted to 803000 M⁻¹ s⁻¹.

For a further experiment, the target named is T4, recombinant cynomolgus BCMA Fc(kih). The description is as above. The procedure: as §2
With B1, the Kd worked out at 0.478 nM, the koff is 0.000235 s⁻¹ and the kon stood at 491000 M⁻¹ s⁻¹.

Take B2: the Kd is 0.974 nM, the koff is 0.000442 s⁻¹ and the kon stood at 454000 M⁻¹ s⁻¹.

On to B3, for which the Kd is 0.739 nM, the koff came to 9.76e-05 s⁻¹ and the kon came to 132000 M⁻¹ s⁻¹.

With B5, the Kd stood at 2.17 nM, the koff amounted to 0.000467 s⁻¹ and the kon is 215000 M⁻¹ s⁻¹.

Regarding B4, the Kd is 0.641 nM, the koff was 0.000453 s⁻¹ and the kon was determined as 707000 M⁻¹ s⁻¹.

In a further experiment the target is T2, human BCMA on cells. Briefly: flow cytometry on HEK-huBCMA cells, PE anti-human Fc detection. (Flow cytometry measures light scatter and fluorescence of single cells or particles in a stream.)
One may read the EC50 as the concentration at which the effect is half-maximal. Read a high EC50 as weaker potency. Turning to B1, the concentration for a half-maximal effect (EC50) is 2.46 nM and 0.35 µg/mL.

As to B6, the EC50 was 1.47 nM and 0.21 µg/mL.

As for B2, the EC50 is 2.08 nM and 0.3 µg/mL.

B3: the EC50 is 1.18 nM and 0.17 µg/mL.

Take B7: the EC50 was 11.3 nM and 1.63 µg/mL.

Regarding B5, the EC50 is 1.73 nM and 0.25 µg/mL.

Turning to B8, the concentration giving a half-maximal response (EC50) was 1.55 nM and 0.22 µg/mL.

Regarding B4, the EC50 is 2.1 nM and 0.3 µg/mL.

As to B9, the EC50 is 1.24 nM and 0.18 µg/mL.

A further experiment concerns the target T4, recombinant cynomolgus BCMA Fc(kih). Briefly: ratio of SPR KD values (KD cynomolgus BCMA / KD human BCMA), reference human BCMA Fc(kih). The procedure: The avidity of the interaction between anti-BCMA antibodies and recombinant BCMA Fc(kih) (human and cynomolgus) was determined. Biotinylated recombinant human and cynomolgus BCMA Fc(kih) were directly coupled on a SA chip following instructions (Biacore, Freiburg/Germany). The immobilization level ranged from 200 to 700 RU. […] The dissociation was monitored for 180 seconds. Bulk refractive index differences were corrected for by subtracting the response obtained on the reference flow cell. Here, the anti-BCMA antibodies were flown over an empty surface previously activated and deactivated as described in the standard amine coupling kit. Apparent kinetic constants were derived using the Biacore T200 Evaluation Software (vAA, Biacore AB, Uppsala/Sweden), to fit rate equations for 1:1 Langmuir binding by numerical integration, despite the bivalency of the interaction for comparison purposes. The affinity of the interaction between anti-BCMA antibodies and recombinant human BCMA Fc(kih) was also determined. Anti-human Fab antibody (GE Healthcare) was directly coupled on a CMS chip at pH 5.0 using the standard amine coupling kit (Biacore, Freiburg/Germany). The immobilization level was about 6500 RU. […] The dissociation was monitored for 120 seconds. Bulk refractive index differences were corrected for by subtracting the response obtained on reference flow cell. […] Kinetic constants were derived using the Biacore T100 Evaluation Software (vAA, Biacore AB, Uppsala/Sweden), to fit rate equations for 1:1 Langmuir binding by numerical integration (Table 4).
Based on the affinity values described in Example 2, the affinity of anti-BCMA antibodies to human BCMA vs. cynomolgus BCMA were compared and cyno/hu affinity ratio (gap) values were calculated (Table 5).
Turning to B1, the Affinity cyno/hu gap stood at 9.3 fold.

For B2, the Affinity cyno/hu gap was 15.4 fold.

In the case of B3, the Affinity cyno/hu gap came to 4.2 fold.

In the case of B5, the Affinity cyno/hu gap stood at 14 fold.

With B4, the Affinity cyno/hu gap came to 1.7 fold.
